Assay: Film-forming critical line of lysozyme concentration vs cysteine concentration
Format: physicochemical
Conditions: FIG. 2
Protocol: In order to study a film-forming critical line between a film-forming protein and cysteine, the inventors prepared different concentrations of film-forming protein solutions and cysteine solutions, and curves were drawn as shown in FIG. 2. […] However, when the protein concentration was 0.2 mg/mL, higher concentration of cysteine was required for film formation.

Question: For lysozyme [Lyz], which “protein concentration at which a small amount of cysteine could form a film” value is on record?
Answer: greater than or equal to 0.2 mg/mL

From patent US20240407995A1, “BIOMINERALIZATION MATERIAL FOR TREATING DENTIN HYPERSENSITIVITY AND PROMOTING EPITAXIAL GROWTH OF ENAMEL, AND USE THEREOF” (SHAANXI NORMAL UNIVERSITY, priority 2022, published 2024)
